Laboratory results from publication PMC12447786.

Target: Cys SARS2 Nsp1, fluorescein-labelled (SARS-CoV-2) (UniProt P0DTD1)
Assay: fluorescence polarisation

Question: For “40S ribosomal subunit purified from rabbit reticulocytes (complex)”, which Kd is on record?
Answer: 27 nM
